Several values for one entry are separate records, joined by “and”; a condition that tells them apart may be missing. Equal entries are not always repeated. Non-standard residues stand in square brackets, D forms with d. No end group written: not given here. hArg = N=C(N)NCCCC[C@H](N)C(=O)O; Chg = N[C@H](C(=O)O)C1CCCCC1; NMeK = CN[C@@H](CCCCN)C(=O)O; Phg = N[C@H](C(=O)O)c1ccccc1
T1: Nat1 (LTIITLE) (also: TFA salt)
T1 peptide: LTIITLE


Target: T1, Nat1 (LTIITLE)
Experiment: cell-based or functional assay

Binder | IC50, Thiofiavin T aggregation assay
[Phg]R[Phg]RRYR [Phg-Arg-Phg-Arg-Arg-Tyr-Arg] | 5950 nM
IRIRRYE | 32800 nM
ARIRRYR | 144 nM
IR[Chg]RRYR [Ile-Arg-Chg-Arg-Arg-Tyr-Arg] | 81 nM
ILRLYFR | 8970 nM
Ac-IRIRRYR-NH2 [Ac-IRIRRYR-NH2] | 69 nM
YRLRYLR | 99 nM
FRLYIH | 16400 nM
LRI[NMeK]YHR [LRI(N-Me)KYHR] | 125 nM
LYIKYHR | 148 nM
IRIRRYR | 27 nM
IRIRRWR | 76 nM
LRIYRVR | 81 nM
[dH][dW][dR][dW][dY][dW][dK] [hwrwywk] | 159 nM
[dF][dF][dR][dF][dH][dH][dR] [ffrfhhr] | 151 nM
LTIRYYK | 93 nM
[dF][dW][dR][dW][dH][dR][dR] [fwrwhrr] | 147 nM and 164 nM
LRLRHYR | 146 nM
IRIRAYR | 23 nM
LRIYHHK | 152 nM
LRIRFFR | 90 nM
YTRITYH | 150 nM
[dF][dW][dR][dW][dH][dR] [fwrwhr] | 88 nM

Binder | IC50, Thiofiavin T aggregation assay
YTIQLWH | 46000 nM
[dH][dQ][dR][dR][dY][dQ][dR] [hqrryqr] | 39100 nM
[dH][dL][dR][dI][dW][dR][dN] [hlriwrn] | 97 nM
LRIRYWK | 36 nM
FFRLYLR | 13400 nM
TFVFRHR | 20300 nM
LRIRRYR | 76 nM
LWIKYHR | 76 nM
[dH][dQ][dR][dY][dY][dW][dR] [hqryywr] | 138 nM
IRIRHYRP | 142 nM
I[hArg]I[hArg]RYR [Ile-homoArg-Ile-homoArg-Arg-Tyr-Arg] | 30 nM
WTIKLWH | 84 nM
IAIRRYR | 74 nM
LFRYYQK | 100 nM
IR[Phg]RRYR [Ile-Arg-Phg-Arg-Arg-Tyr-Arg] | 124 nM
LTRILWH | 16200 nM
LTRILTH | 7370 nM
LVIRYHR | 101 nM
RFYRYLR | 107 nM
LYIRYLR | 70 nM
IRLRRYR | 153 nM
LRIKYHR | 71 nM
[dF][dF][dR][dF][dH][dR][dR] [ffrfhrr] | 104 nM

The remaining lines, values ahead:

IC50, Thiofiavin T aggregation assay | Binder
116 nM | [dS][dF][dW][dY][dK][dR][dR] [sfwykrr]
139 nM | [dH][dW][dR][dY][dH][dR][dR] [hwryhrr]
156 nM | [dR][dW][dR][dW][dH][dH][dR] [rwrwhhr]
87 nM | [dK][dY][dR][dW][dY][dR][dH] [kyrwyrh]
108 nM | [dL][dW][dR][dR][dY][dH][dR] [lwrryhr]
12600 nM | [dK][dL][dK][dW][dA][dY] [klkway]
118 nM | [dY][dQ][dY][dY][dY][dQ][dR] [yqyyyqr]
7310 nM | [dK][dL][dK][dW][dQ][dW] [klkwqw]
112 nM | [dY][dQ][dW][dR][dH][dW][dR] [yqwrhwr]
81 nM | [dR][dF][dY][dR][dR][dH][dR] [rfyrrhr]
78 nM | [dW][dW][dR][dW][dY][dR][dR] [wwrwyrr]
115 nM | [dR][dW][dY][dW][dH][dH][dR] [rwywhhr]
75 nM | [dK][dW][dR][dW][dY][dR][dR] [kwrwyrr]
23900 nM | [dQ][dF][dH][dY][dK][dR][dR] [qfhylcrr]
145 nM | [dR][dW][dH][dW][dH][dW][dR] [rwhwhwr]
110 nM | [dR][dI][dR][dW][dY][dW][dK] [rirwywk]
132 nM | [dR][dQ][dW][dY][dH][dW][dR] [rqwyhwr]
30900 nM | [dR][dF][dH][dR][dH][dH][dR] [rfhrhhr]
13200 nM | [dR][dM][dW][dR][dH][dH][dR] [rmwrhhr]
71 nM | [dK][dL][dK][dK][dL][dH] [klkklh]
117 nM | [dR][dF][dE][dF][dR][dH][dR] [rfefrhr]
